Changes are numbered by the printed parent chain. Starred links: 1 amine or outer side, 2 acyl side, 3 side chain; linkers in the order of their positions; H or OH if unused. Non-standard residues stand in square brackets, D forms with d. Groups on a side chain read outwards from the residue. *: point of attachment. C20 diacid = O=C(O)CCCCCCCCCCCCCCCCCCC(=O)*; γGlu = O=C(O)[C@H](CCC(=O)[*:2])N[*:1]; Aib = CC(C)(N)C(=O)O
T1: human GIP receptor (human, UniProt P48546 22-466)
T1 sequence (looked up): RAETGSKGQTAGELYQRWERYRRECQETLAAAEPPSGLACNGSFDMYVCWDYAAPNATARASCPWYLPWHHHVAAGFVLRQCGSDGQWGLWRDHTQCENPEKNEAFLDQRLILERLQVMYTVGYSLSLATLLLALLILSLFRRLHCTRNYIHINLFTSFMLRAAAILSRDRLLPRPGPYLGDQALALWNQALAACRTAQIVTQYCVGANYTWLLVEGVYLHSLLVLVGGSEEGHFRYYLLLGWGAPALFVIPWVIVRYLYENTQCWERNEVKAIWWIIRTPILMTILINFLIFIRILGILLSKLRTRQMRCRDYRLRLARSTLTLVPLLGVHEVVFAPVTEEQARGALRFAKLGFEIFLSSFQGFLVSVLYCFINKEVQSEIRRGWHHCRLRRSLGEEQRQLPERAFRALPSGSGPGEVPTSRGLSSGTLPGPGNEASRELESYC

B1: Compound 33 (peptide)
peptide: YAEGTFISDYSIELDKKAAQDFIEWLLAGPSSGAPPPS
modifications: Aib at 2; Lys 17 side chain acylated: K((19-Carboxy-nonadecanoyl)-[(Piperazine-1-yl)-acetyl]-Peg3-Peg3); C-terminal amide (-NH2)
B2: Compound 26 (peptide)
peptide: YAEGTFISDYSIELDKIAAQDFIEWLLAGPSSGAPPPSK
modifications: Aib at 2; Lys 39 side chain acylated: K((19-Carboxy-nonadecanoyl)-[(Piperazine-1-yl)-acetyl]-Peg3-Peg3); C-terminal amide (-NH2)
B3: Compound 37 (peptide)
peptide: B2 peptide with A2X
modifications: D-Ala at 2; Lys 39 side chain acylated: K((19-Carboxy-nonadecanoyl)-[(Piperazine-1-yl)-acetyl]-Peg3-Peg3); C-terminal amide (-NH2)
B4: Compound 20 (peptide)
peptide: YAEGTFISDYSIELDKKAQRAFVEWLLAQGPSSGAPPPS
modifications: Aib at 2; Lys 17 side chain acylated: K((19-Carboxy-nonadecanoyl)-[(Piperazine-1-yl)-acetyl]-Peg3-Peg3); C-terminal amide (-NH2)
B5: Compound 21 (peptide)
peptide: B4 peptide with R20K, A21E, Q29A
modifications: Aib at 2; Lys 17 side chain acylated: K((19-Carboxy-nonadecanoyl)-[(Piperazine-1-yl)-acetyl]-Peg3-Peg3); C-terminal amide (-NH2)

Legend:
Test in all cases: cell-based or functional assay
[1] = molecular target: human GLP-1 receptor (human, UniProt P43220 24-463)
[2] = molecular target: T1, human GIP receptor
[3] = molecular target: T1, human GIP receptor; remark: listed apart in the source

Row | Binder | EC50 hGLP1 R (cAMP, HEK293 cells expressing the GLP-1R) [1] | EC50 hGIP R (cAMP, HEK293 cells expressing the GIP R) [2] | EC50, hGIP-R level of cAMP (HEK293 cells expressing human GIP R) [3]
1 | H-Y[Aib]EGTFISDYSIELDKK([Peg3-Peg3-γGlu-C20 diacid])AAQAFVNWLLAGPSSGAPPPS-NH2 [Compound 29] | > 100 nM | 0.007 nM | 0.014 nM
2 | H-Y[Aib]EGTFISDYSIELDKK([Peg3-Peg3-γGlu-C20 diacid])AAQDFIEWLLAQGPSSGAPPPS-NH2 [Compound 38] | > 100 nM | 0.017 nM | 0.001 nM
3 | H-Y[Aib]EGTFISDYSIELDKIAAQDFVEWLLAGPSSGAPPPSK([Peg3-Peg3-γGlu-C20 diacid])-NH2 [Compound 27] | > 10 nM | 0.017 nM | 0.013 nM
4 | H-Y[Aib]EGTFISDYSIELDKK([Peg3-Peg3-γGlu-C20 diacid])AAQDFVNWLLAQGPSSGAPPPS-NH2 [Compound 10] | > 10 nM | 0.008 nM | 0.007 nM
5 | H-Y[Aib]EGTFISDYSIELDKIAAQDFIEWLLAGPSSGAPPPSK([Peg3-Peg3-γGlu-C20 diacid])-NH2 [Compound 25] | > 100 nM | 0.008 nM | 0.032 nM
6 | H-Y[Aib]EGTFISDYSIELDK([Peg3-Peg3-γGlu-C20 diacid])IAQRAFIEWLLAQGPSSGAPPPS-NH2 [Compound 34] | > 10 nM | 0.017 nM | 0.011 nM
7 | H-Y[Aib]EGTFISDYSIELDKIAQRAFIEWLLAGPSSGAPPPSK([Peg3-Peg3-γGlu-C20 diacid])-NH2 [Compound 23] | > 10 nM | 0.005 nM | 0.01 nM
8 | H-Y[Aib]EGTFISDYSIELDKK([Peg3-Peg3-γGlu-C20 diacid])AAQDFINWLLAGPSSGAPPPS-NH2 [Compound 31] | > 100 nM | 0.009 nM | 0.012 nM
9 | H-Y[Aib]EGTFISDYSIELDKK([Peg3-Peg3-γGlu-C20 diacid])AQKEFVEWLLAAGPSSGAPPPS-NH2 [Compound 22] | > 10 nM | 0.007 nM | 0.005 nM
10 | H-Y[Aib]EGTFISDYSIELEKK([Peg3-Peg3-γGlu-C20 diacid])AAKEFVNWLLAQGPSSGAPPPS-NH2 [Compound 11] | > 3 nM | 0.008 nM | 0.009 nM
11 | H-Y[Aib]EGTFISDYSIELDKIAQRAFIEWLLAQGPSSGAPPPSK([Peg3-Peg3-γGlu-C20 diacid])-NH2 [Compound 28] | > 3 nM | 0.013 nM | 0.007 nM
12 | H-Y[Aib]EGTFISDYSIELDKK([Peg3-Peg3-γGlu-C20 diacid])AAQDFIEWLLAGPSSGAPPPS-NH2 [Compound 32] | > 100 nM | 0.012 nM | 0.02 nM
13 | H-Y[Aib]EGTFISDYSK([Peg3-Peg3-γGlu-C20 diacid])ELDKIAQRAFIEWLLAQGPSSGAPPPS-NH2 [Compound 35] | > 3 nM | 0.011 nM | 0.008 nM
14 | H-Y[Aib]EGTFISDYSIELDKK([Peg3-Peg3-γGlu-C20 diacid])AAQDFVNWLLAAGPSSGAPPPS-NH2 [Compound 30] | > 10 nM | 0.014 nM | 0.009 nM
15 | H-Y[Aib]EGTFISDYSIELDKK([Peg3-Peg3-γGlu-C20 diacid])AAQDFINWLLAQGPSSGAPPPS-NH2 [Compound 39] | > 100 nM | 0.001 nM | 0.007 nM
16 | B1 | > 10 nM | 0.02 nM | 0.014 nM
17 | H-Y[dA]EGTFISDYSIELDKK([Peg3-Peg3-γGlu-C20 diacid])AQRAFIEWLLAQGPSSGAPPPS-NH2 [Compound 36] | > 10 nM | 0.006 nM | 0.006 nM
18 | B2 | > 10 nM | 0.032 nM | 0.017 nM
19 | B3 | > 10 nM | 0.006 nM | 0.016 nM
20 | H-Y[Aib]EGTFISDYSIELDKIAQKEFIEWLLAGPSSGAPPPSK([Peg3-Peg3-γGlu-C20 diacid])-NH2 [Compound 24] | > 10 nM | 0.01 nM | 0.008 nM
21 | B4 | > 3 nM | 0.006 nM | 0.007 nM
22 | B5 | > 3 nM | 0.006 nM | 0.007 nM
